In US20240052059A1 (PUBLIC UNIVERSITY CORPORATION NARA MEDICAL UNIVERSITY, published 2024):

Target: FIX remaining in commercially-available FIX-deficient human plasma (trace amount) (human, UniProt P00740 47-461)
Assay: cell-based or functional assay

FIX remaining in commercially-available FIX-deficient human plasma (trace amount), sequence (P00740 47-461 limits assumed): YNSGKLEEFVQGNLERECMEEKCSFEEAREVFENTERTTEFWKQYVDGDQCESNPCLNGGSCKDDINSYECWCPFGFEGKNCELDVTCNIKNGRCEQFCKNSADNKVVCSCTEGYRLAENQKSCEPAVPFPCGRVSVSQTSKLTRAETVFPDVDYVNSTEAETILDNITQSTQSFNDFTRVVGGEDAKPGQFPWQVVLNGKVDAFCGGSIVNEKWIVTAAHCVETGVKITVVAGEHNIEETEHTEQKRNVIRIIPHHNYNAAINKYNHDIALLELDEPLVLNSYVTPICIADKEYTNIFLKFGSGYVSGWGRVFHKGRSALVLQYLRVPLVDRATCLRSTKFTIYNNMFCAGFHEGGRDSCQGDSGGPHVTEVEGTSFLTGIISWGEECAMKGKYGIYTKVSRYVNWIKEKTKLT

B1: ACE910 (Emicizumab), anti-FIXa/FX bispecific antibody (Q499-z121/J327-z119/L404-k) (bispecific antibody, human IgG4 S228P, kappa)
heavy 1: QVQLVESGGGLVQPGGSLRLSCAASGFTFSYYDIQWVRQAPGKGLEWVSSISPSGQSTYYRREVKGRFTISRDNSKNTLYLQMNSLRAEDTAVYYCARRTGREYGGGWYFDYWGQGTLVTVSSASTKGPSVFPLAPCSRSTSESTAALGCLVKDYFPEPVTVSWNSGALTSGVHTFPAVLQSSGLYSLSSVVTVPSSSLGTQTYTCNVDHKPSNTKVDKRVESKYGPPCPPCPAPEFLGGPSVFLFPPKPKDTLMISRTPEVTCVVVDVSQEDPEVQFNWYVDGVEVHNAKTKPREEQYNSTYRVVSVLTVLHQDWLNGKEYKCKVSNKGLPSSIEKTISKAKGQPREPQVYTLPPSQKEMTKNQVSLTCLVKGFYPSDIAVEWESNGQPENNYKTTPPVLDSDGSFFLYSKLTVDKSRWQEGNVFSCSVMHEALHNRYTQKSLSLSP
heavy 2: QVQLVQSGSELKKPGASVKVSCKASGYTFTDNNMDWVRQAPGQGLEWMGDINTRSGGSIYNEEFQDRVIMTVDKSTDTAYMELSSLRSEDTATYHCARRKSYGYYLDEWGEGTLVTVSSASTKGPSVFPLAPCSRSTSESTAALGCLVKDYFPEPVTVSWNSGALTSGVHTFPAVLQSSGLYSLSSVVTVPSSSLGTQTYTCNVDHKPSNTKVDKRVESKYGPPCPPCPAPEFLGGPSVFLFPPKPKDTLMISRTPEVTCVVVDVSQEDPEVQFNWYVDGVEVHNAKTKPREEQYNSTYRVVSVLTVLHQDWLNGKEYKCKVSNKGLPSSIEKTISKAKGQPREPQVYTLPPSQEEMTKNQVSLTCLVKGFYPSDIAVEWESNGQPENNYKTTPPVLDSDGSFFLYSKLTVDKSRWQEGNVFSCSVMHEALHNHYTQESLSLSP
light: DIQMTQSPSSLSASVGDRVTITCKASRNIERQLAWYQQKPGQAPELLIYQASRKESGVPDRFSGSRYGTDFTLTISSLQPEDIATYYCQQYSDPPLTFGGGTKVEIKRTVAAPSVFIFPPSDEQLKSGTASVVCLLNNFYPREAKVQWKVDNALQSGNSQESVTEQDSKDSTYSLSSTLTLSKADYEKHKVYACEVTHQGLSSPVTKSFNRGEC
  APTT shortening ratio with 100 ug/mL ACE910 in FIX-deficient human plasma without FIX formulation, after further addition of anti-FIX-Gla antibody (150 ug/mL): -3%
